The nature of series [1]: 14C assay: 14CO2 capture from [14C]-carboxyl-labeled dicamba with IPTG-induced recombinant E. coli cells. The following applies: dicamba decarboxylation activity.
Series [2] is described as follows: Enzyme kinetic characterization (kcat, KM, kcat/KM) of dicamba decarboxylase variants (Table 9).
A short description of series [3]: 14C assay: 14CO2 capture from [14C]-carboxyl-labeled dicamba with purified protein. The format is biochemical.
A short description of series [4]: GC/MS detection of 2,5-dichloro anisole (2,5-DCA), toluene trapping or head-space. Type of series: biochemical. To be noted: purified protein, dicamba, toluene capturing. As for the experimental part: Alternatively, dicamba decarboxylase activity can be monitored by measuring decarboxylation products other than CO2 using product detection methods. The decarboxylation product of dicamba, 2,5-dichloro anisole or 2,5-DCA (FIG. 1C), is a volatile compound with a flash point of 21° C. To capture this volatile compound for detection, 140 ul of toluene solution is added on top of 1 ml reaction mixture to form a trapping layer in a 1.5 ml eppendorf tube. […] The reaction is kept still at room temperature overnight before being vortex mixed and centrifuged at 14,000 rpm for 15 minutes. The top toluene phase is carefully removed using a micropipette and transferred into a 12×32 mm polypropylene vial (Vial 11 mm) from MicroLiter Analytical Supplies, Inc. (catalog number 11-5300-100). The vial is sealed with Crimp seal (11 mm with FEP/Nat Rubber) from MicroLiter Analytical Supplies, Inc. (catalog number 11-0020A) using a E-Z Crimper™ 11 mm from Wheaton Inc. 1 ul of the toluene mixture is taken from the sealed vials and injected in splitless mode into a GC/MS system for sample analysis (Agilent GC/MS system with a 6890A GC, a 5973N MSD and a CTC CombiPAL auto-sampler or with a 7890A GC, a 5975C MSD and an Agilent GC Sampler 80 auto-sampler). The GC parameters are: Agilent DB-5MS column (30 m length, 0.25 mm diameter, 0.25 um film) or equivalent; The GC inlet temperature, 250° C.; Carry gas, helium in constant flow mode (1.2 mL/min); The GC oven temperature program, initial temperature at 70° C. for 1 min, ramping to 200° C. at 15° C./min, and then ramping to 250° C. at 30° C./min. MS data acquisition is done in SIM (selected ion monitoring) mode, monitoring the positive ion at M/Z 176 for the molecular ion of […]. The solvent delay for MS acquisition is set at 4 min. Another method for detection of 2,5-DCA is a head-space GC/MS method. Briefly, reaction mixtures in 500 ul reaction volume are prepared in 1.5 ml 12×32 mm glass vials (Microliter Analytical Supplies, Cat#11-1200) for head space analysis. Glass vials are sealed with magnetic cap from MicroLiter Analytical Supplies, Inc. (catalog number 11-0030AT) using a E-Z Crimper™ 11 mm from Wheaton Industries Inc. The reaction is carried out at room temperature for various amount of time and stopped by heating at 95° C. for 5 min. The reaction vial is transferred to a agitator for incubation at 80° C. for 5 min at 500 rpm. With a syringe preheated at 80° C., 1000 uL of head space is injected with sample fill speed at 100 uL/sec. GC/MS parameters for headspace analysis are the same as for liquid sample analysis.

Series [5] is described as follows: Dicamba decarboxylation activity of computationally designed protein variants and parents (Tables 4, 5). The following applies: native proteins and designed variants; assay not specified.
Series [6] is described as follows: GC/MS detection of 2,5-dichloro phenol (2,5-DCP); kinetic determination. Type of series: biochemical. To be noted: purified protein, dicamba.
Series [7] can be described thus: LC-MS/MS detection of 4-chloro-3-methoxy phenol. The format is biochemical. To be noted: purified protein, dicamba.

The source of these data is US20140289906A1, “Compositions Having Dicamba Decarboxylase Activity and Methods of Use” (priority 2013, published 2014).

B1: 123 (protein)
chain: MAQGKVALEEHFAIPETLQDSAGFVPGDYWKELQHRLLDIQDTRLKLMDAHGIETMILSLAAPAVQAIPDRRKAIEIARRANDVLAEECAKRPDRFLAFAALPLQDPDAATEELQRCVNDLGFVGALVNGFSQEGDGQTPLYYDLPQYRPFWGEVEKLDVPFYLHPRNPLPQDSRIYDGHPWLLGPTWAFAQETAVHALRLMASGLFDEHPRLNIILGHMGEGLPYMMWRIDHRVAWVKLPPRYPAKRRFMDYFNENFHITTSGNFRTQTLIDAILEIGADRILFSTDWPFENIDHASDWFNATSIAEADRVKIGRTNARRLFKLDGA
modifications: Dicamba decarboxylase variant clone S03902153
As to B1, in series [1], the “Enzymatic Detection level” value is “High”. In addition, the “protein kinetic activity (substrate concentration versus reaction velocity) over SEQ ID NO:109” value in series [2] (FIG. 6) is “improvement”.

B2: 126 (protein)
chain: MAQGKVALEEHFAIPETLQDSAGFVPGDYWKELQHRLLDIQDTRLKLMDAHGIETMILSLAAPAVQAIPDRRKAIEIARRANDFLAEECAKRPDRFLAFAALPLQDPDAATEELQRCVNDLGFVGALVNGFSQEGDGQTPLYYDLPQYRPFWGEVEKLDVPFYLHPRNPLPQDSRIYDGHPWLLGPTWAFAQETAVHALRLMASGLFDEHPRLNIILGHMGEGLPYMMYRIDHRIAWVKLPPRYPAKRRFMDYFNENFHITTSGNFRTQTLIDAILEIGADRILFSTDWPFENIDHAADWFNATSIAEADRVKIGRTNARRLFKLDGA
modifications: Dicamba decarboxylase variant clone S03970792
Consider B2, for which the “Enzymatic Detection level” value in series [1] was “High”. Further, in series [2] (substrate dicamba, purified protein), the kcat (as a rule, the maximal rate divided by the concentration of active sites) turned out to be 0.03967 s⁻¹.

B3: 120 (protein)
chain: MAIIDCHGHYTTTPKGVETYRNAQKAAVAKDPSFKYEKGQVVVSDDEIRESIENNQLKMQRERGTDLTIFSPRSTAGGHHIGNEYTSQFWTEHQNDLIRRVCDLFPKNFAPVAQLPQSPGVDPAKSVPEIVRTVEQMGFIGINLNPDPSGGYWKDTSLADRAFYPIYEKMVEYDIPAMIHPRNACNDCFHTTGSHALGADTTGFQQLIMSDVFKDFPSLKIIIPHGGGAVPYHWGRFRGLMQDQGYAPLEESALKNIYFDTCVYHQRGIDLLLDIVPTQNILFASEMIGAVRGIDAETGHNFDDTKRYIDNNTALNAEEKAMIFEGNARRVFSRLKTD
modifications: Dicamba decarboxylase variant clone DC.12.002
As for B3, the “Enzymatic Detection level” value in series [1] was “High”. For the same molecule, the CO2 product detected result in series [3] is “not detected”. Also, the “2,5-DCA product detected” value in series [4] is on record as “detected”. Besides, the “dicamba decarboxylase activity (statement in the description)” value (shortened to “dicamba decarboxylase activity”) in series [5] is listed as “have dicamba decarboxylase activity”. Moreover, in series [6], the “2,5-DCP product detected” value is “not detected”. In series [7], the “4-chloro-3-methoxy phenol product detected” value is “not detected”.

B4: 122 (protein)
chain: MAIIDCHGHYTTTPKGVEDYRNAQKAAVAKDPSFKGEKGQVVVSDDEIRESIENNQLKMQRERGTDLTIFSPRSTAGGHHIGNEYTSQFWTEHQNDLIRRVCDLFPKNFAPVAQLPQSPGVDPAKSVPEIVRTVEQMGFIGINLNPDPSGGYWKDTSLADRAFYPIYEKMVEYDIPAMIHPRNACNDCFHTTGSHALGADTTGFQQLIMSDVFKDFPSLKIIIPHGGGAVPYHWGRFRGLMQDQGYAPLEESALKNIYFDTCVYHQRGIDLLLDIVPTQNILFASDMIGAVRGIDPETGHNFDDTKRYIDNNTALNAEEKAMIFEGNARRVFSRLKTD
modifications: Dicamba decarboxylase variant clone DC.12.103
For B4, the “Enzymatic Detection level” value in series [1] is reported as “High”. The CO2 product detected entry in series [3] is “not detected”. Also, in series [4], the “2,5-DCA product detected” value is listed as “detected”. Also, the “dicamba decarboxylase activity” value in series [5] is recorded as “have dicamba decarboxylase activity”. Further, in series [6], the “2,5-DCP product detected” value is given as “not detected”. In addition, in series [7], the “4-chloro-3-methoxy phenol product detected” value is listed as “not detected”.

B5: 121 (protein)
chain: MAIIDCHGHYTTTPKGVEDYRNAQKAAVAKDPSFKGEKGQVVVSDDEIRESIENNQLKMQRERGTDLTIFSPRWDAGGHHIGNEYTSQFWTEHQNDLIRRVCDLFPKNFAPVAQLPQSPGVDPAKSVPEIVRTVEQMGFIGINLNPDPSGGYWKDTSLADRAFYPIYEKMVEYDIPAMIHPRLACNACFHTGLSVGLGADTTGFQQLIMSDVFKDFPSLKIIIPHGGGAVPYHWGRFRGLMQDQGYAPLEESALKNIYFDTCVYHQRGIDLLLDIVPTQNILFASEMIGAVRGIDPETGHNFDDTKRYIDNNTALNAEEKAMIFEGNARRVFSRLKTD
modifications: Dicamba decarboxylase variant clone DC.12.014
On to B5, for which the “Enzymatic Detection level” value in series [1] is “High”. For the same molecule, the CO2 product detected entry in series [3] was “not detected”. Besides, in series [4], the “2,5-DCA product detected” value is reported as “detected”. For the same molecule, the “dicamba decarboxylase activity” value in series [5] is “have dicamba decarboxylase activity”. Further, the “2,5-DCP product detected” value in series [6] is listed as “not detected”. Further, in series [7], the “4-chloro-3-methoxy phenol product detected” value was “not detected”.
